Test results reported in patent US20250361297A1 (ADAPTAM THERAPEUTICS S L, published 2025).

Columns and labels:
[1] = biological target: T1, truncated human Siglec-15 comprising only domain 2 (D2), expressed on HEK293T cells (human, UniProt Q6ZMC9 168-251, limits assumed); experiment: flow cytometry on HEK 293T cells expressing only D2; compared to antibody clone A2A5C7E8
T1 construct: also called domain 2-only human Siglec-15; Siglec-15 Domain 2 (D2) HEK293T cells
T1 sequence: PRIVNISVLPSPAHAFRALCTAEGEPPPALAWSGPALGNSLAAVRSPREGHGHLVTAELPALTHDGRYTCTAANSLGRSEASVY

[2] = biological target: T2, recombinant human Siglec-15-his protein (Bonopusbio) (human, UniProt Q6ZMC9 20-263); experiment: SPR (Biacore T200), antibody on CM5 chip, Siglec-15-his as analyte
T2 construct: Bought (CW37-50 ug in the ELISA; the SPR paragraph prints CW70-50 ug); whole entry named; also called recombinant human Siglec-15 protein
T2 sequence: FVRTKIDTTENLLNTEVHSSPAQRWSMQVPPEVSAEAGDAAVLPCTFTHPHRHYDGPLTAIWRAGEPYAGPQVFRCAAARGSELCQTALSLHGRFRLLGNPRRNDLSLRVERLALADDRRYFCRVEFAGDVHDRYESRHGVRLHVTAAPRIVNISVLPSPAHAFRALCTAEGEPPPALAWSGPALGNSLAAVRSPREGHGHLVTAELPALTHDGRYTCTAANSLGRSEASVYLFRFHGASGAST

[3] = biological target: T3, recombinant cynomolgus Siglec-15-his protein (Bonopusbio, CW70-50 ug) (cynomolgus monkey, UniProt Q6ZMC9 20-259 (human entry)); experiment: ELISA, plate coated with recombinant cynomolgus Siglec-15-his, antibody titrated up to about 200 nM, OD 450 nm
T3 construct: whole entry named; also called cynomolgous Siglec-15
T3 chain: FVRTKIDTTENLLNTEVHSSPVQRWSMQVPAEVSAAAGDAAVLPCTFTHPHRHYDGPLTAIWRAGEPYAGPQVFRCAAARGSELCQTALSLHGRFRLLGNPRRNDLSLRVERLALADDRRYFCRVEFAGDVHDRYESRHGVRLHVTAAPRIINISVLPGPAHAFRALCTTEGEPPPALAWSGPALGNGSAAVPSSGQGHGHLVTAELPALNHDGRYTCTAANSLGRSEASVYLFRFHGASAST

[4] = biological target: T4, recombinant Siglec-15 (bispecific antibody affinity assay) (Homo sapiens (Human), UniProt Q6ZMC9 20-263, limits assumed); experiment: antibody as ligand, human Siglec15 as analyte; legend paragraph 114 says BLI, methods paragraph 422 say Biacore SPR, table in RU
T4 sequence: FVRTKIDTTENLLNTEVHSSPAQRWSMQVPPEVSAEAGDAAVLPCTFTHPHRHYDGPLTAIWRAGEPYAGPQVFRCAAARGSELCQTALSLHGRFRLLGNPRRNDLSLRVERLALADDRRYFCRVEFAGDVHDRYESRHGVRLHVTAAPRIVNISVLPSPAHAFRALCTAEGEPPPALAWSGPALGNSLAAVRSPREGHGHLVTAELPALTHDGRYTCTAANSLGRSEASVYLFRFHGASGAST

[5] = biological target: T2, recombinant human Siglec-15-his protein …; experiment: ELISA, plate coated with 100 ng per well recombinant human Siglec-15 (supplier not named in Example 3), HRP anti-mouse IgG, OD450
[6] = biological target: T5, human Siglec-15, full length, expressed on cells (human, UniProt Q6ZMC9 20-328); experiment: flow cytometry, HEK293T cells expressing human Siglec-15, anti-human IgG-PE, MFI
T5 construct: also called hS15; MOLM-13 Siglec-15 expressing cells
T5 sequence: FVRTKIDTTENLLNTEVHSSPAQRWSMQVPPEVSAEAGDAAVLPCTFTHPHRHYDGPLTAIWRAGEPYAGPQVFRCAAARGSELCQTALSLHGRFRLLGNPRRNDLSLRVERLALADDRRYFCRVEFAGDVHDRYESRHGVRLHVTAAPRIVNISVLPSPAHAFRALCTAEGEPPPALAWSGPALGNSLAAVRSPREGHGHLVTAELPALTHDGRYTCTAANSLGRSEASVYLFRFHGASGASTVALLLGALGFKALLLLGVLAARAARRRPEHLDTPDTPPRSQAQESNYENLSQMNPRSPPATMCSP

[7] = biological target: T5, human Siglec-15, full length, expressed …; experiment: flow cytometry, THP-1 cells overexpressing human Siglec-15, ADC titrated, anti-human IgG-PE, gMFI
[8] = biological target: T5, human Siglec-15, full length, expressed …; experiment: as above; remark: listed apart in the source
[9] = biological target: T5, human Siglec-15, full length, expressed …; experiment: as above; remark: listed apart in the source
[10] = biological target: recombinant CD3 (UniProt P07766 23-126; P09693 23-116); experiment: antibody as ligand, 'Human CD3 epsilon&CD3 gamma' as analyte; legend paragraph 116 says BLI, methods paragraph 422 say Biacore SPR, table in RU
[11] = biological target: T6, CD3 on Jurkat cells (UniProt P07766 23-207); experiment: flow cytometry, Jurkat cells expressing CD3, gMFI
T6 construct: whole, on cells; Whole CD3 complex on cells; also called CD3-expressing Jurkat cells; Jurkat cells expressing CD3

[12] = biological target: T5, human Siglec-15, full length, expressed …; experiment: flow cytometry, HEK293T cells expressing human Siglec-15, anti-human IgG-PE, gMFI
[13] = biological target: T1, truncated human Siglec-15 comprising …; experiment: flow cytometry, HEK293T cells expressing only domain 2 of human Siglec-15, fold change of Siglec15 gMFI relative to 2ry control
[14] = biological target: T7, mouse Siglec-15, full length, expressed on HEK293T cells (mouse); experiment: IgG1 titration, flow cytometry on HEK293T cells expressing mouse Siglec-15
T7 construct: also called mS15; HEK293T cells expressing mouse Siglec-15
T7 chain: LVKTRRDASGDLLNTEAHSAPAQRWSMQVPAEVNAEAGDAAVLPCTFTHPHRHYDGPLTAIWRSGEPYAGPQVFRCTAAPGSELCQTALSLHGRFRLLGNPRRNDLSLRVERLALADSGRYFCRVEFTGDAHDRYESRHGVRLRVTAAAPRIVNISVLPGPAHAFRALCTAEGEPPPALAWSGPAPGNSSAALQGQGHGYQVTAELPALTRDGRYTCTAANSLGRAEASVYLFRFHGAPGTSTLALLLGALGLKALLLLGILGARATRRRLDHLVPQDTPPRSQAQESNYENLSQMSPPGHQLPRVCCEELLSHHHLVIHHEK

[15] = biological target: T5, human Siglec-15, full length, expressed …; experiment: IgG1 titration, flow cytometry on MOLM-13 human Siglec-15 cells

Sequence of recombinant CD3 (P07766 23-126, form in doubt, chain 1 of 2): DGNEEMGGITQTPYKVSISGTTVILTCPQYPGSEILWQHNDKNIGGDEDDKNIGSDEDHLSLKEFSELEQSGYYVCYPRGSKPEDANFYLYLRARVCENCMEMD
Sequence of recombinant CD3 (P09693 23-116, form in doubt, chain 2 of 2): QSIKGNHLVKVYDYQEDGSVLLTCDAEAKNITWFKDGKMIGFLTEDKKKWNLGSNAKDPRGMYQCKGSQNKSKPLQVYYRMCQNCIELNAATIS
T6 sequence (P07766 23-207): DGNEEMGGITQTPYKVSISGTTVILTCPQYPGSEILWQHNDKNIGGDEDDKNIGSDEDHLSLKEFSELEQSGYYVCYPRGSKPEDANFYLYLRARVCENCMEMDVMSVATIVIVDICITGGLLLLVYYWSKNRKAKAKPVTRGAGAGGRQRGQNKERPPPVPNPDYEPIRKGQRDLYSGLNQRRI

B1: S15B1 (antibody, V domains shown)
VH: QVQLQQSGPELVKPGASVKISCKASGYAFSSSWMNWVKQRPGKGLEWIGRIYPGHGETNYNGKFKDKATVTADKSSSTTYMQLSSLTSEDSAVYFCARVDNSDPYYFDYWGQGTTLTVSS
VL: DIVLTQSPASLAVSLGQRATISCRASKSVSTSGYSYMHWYQQKPGQPPKLLIYLASNLESGVPARFSGSGSGTDFTLNIHPVEEEDAATYYCQHGRELPFTFGSGTKLEIK
notes: Mouse hybridoma monoclonal antibody ('parental mouse S15B1'); also called clone S15B1; S15B1-VH + VL (Parental)
fold increase in antibody-positive cells [1]: ~4 fold | Kd [2]: 0.0522 nM | koff [2]: 0.000233 s⁻¹ | kon [2]: 4.46e+06 M⁻¹ s⁻¹ | EC50 (read off the curve) [3]: ~0.6 nM | Kd [4]: 0.0497 nM | koff [4]: 0.000154 s⁻¹ | kon [4]: 3.11e+06 M⁻¹ s⁻¹ | EC50 (read off the curve) [5]: ~0.2 µg/mL | EC50 (read off the curve) [6]: ~0.5 nM

B2: S15B1-MMAE ADC (other)
VH: QVQLQQSGPELVKPGASVKISCKASGYAFSSSWMNWVKQRPGKGLEWIGRIYPGHGETNYNGKFKDKATVTADKSSSTTYMQLSSLTSEDSAVYFCARVDNSDPYYFDYWGQGTTLTVSS
VL: DIVLTQSPASLAVSLGQRATISCRASKSVSTSGYSYMHWYQQKPGQPPKLLIYLASNLESGVPARFSGSGSGTDFTLNIHPVEEEDAATYYCQHGRELPFTFGSGTKLEIK
modifications: vc-MMAE payload linker conjugated to the antibody; residue not stated
notes: Antibody-drug conjugate; also called S15B1-based antibody-drug conjugate with MMAE
EC50 (read off the curve) [7]: ~8 nM

B3: ZLA-1243-E01-MMAE (other)
VH: QVQLVQSGGGLVQPGRSLRLSCAASGFTFDDYAMHWVRQAPGKGLEWVSGISWNSGSIGYADSVKGRFTISRDNAKNSLYLQMNSLRAEDTALYYCAKGLWPSYDLDAFDIWGQGTMVTVSS
VL: QSALTQPASVSGSPGQSITLSCTGTSSDVGAYNFVSWYQQHPGTAPKLMIYEVSNRPSGVSDRFSGSKSGNTASLTISGLQAEDEADYYCSSYTSTIPPFVFGTGTKVTVL
modifications: vc-MMAE payload linker conjugated to the antibody; residue not stated
EC50 (read off the curve) [8]: ~3 nM

B4: S15B1-Exatecan ADC (other)
VH: QVQLQQSGPELVKPGASVKISCKASGYAFSSSWMNWVKQRPGKGLEWIGRIYPGHGETNYNGKFKDKATVTADKSSSTTYMQLSSLTSEDSAVYFCARVDNSDPYYFDYWGQGTTLTVSS
VL: DIVLTQSPASLAVSLGQRATISCRASKSVSTSGYSYMHWYQQKPGQPPKLLIYLASNLESGVPARFSGSGSGTDFTLNIHPVEEEDAATYYCQHGRELPFTFGSGTKLEIK
modifications: MC-GGFG-Exatecan payload linker conjugated to the antibody; residue not stated
notes: Antibody-drug conjugate; also called S15B1-based antibody-drug conjugate with Exatecan
EC50 (read off the curve) [9]: ~6 nM

B5: BsAb-1 (bispecific antibody, human IgG1, kappa, lambda, L234A L235A)
light 1: not shown
heavy 1: QVQLQQSGPELVKPGASVKISCKASGYAFSSSWMNWVKQRPGKGLEWIGRIYPGHGETNYNGKFKDKATVTADKSSSTTYMQLSSLTSEDSAVYFCARVDNSDPYYFDYWGQGTTLTVSSASTKGPSVFPLAPSSKSTSGGTAALGCLVKDYFPEPVTVSWNSGALTSGVHTFPAVLQSSGLYSLSSVVTVPSSSLGTQTYICNVNHKPSNTKVDKKVEPKSCDKTHTCPPCPAPEAAGGPSVFLFPPKPKDTLMISRTPEVTCVVVDVSHEDPEVKFNWYVDGVEVHNAKTKPREEQYNSTYRVVSVLTVLHQDWLNGKEYKCKVSNKALPAPIEKTISKAKGQPREPQVCTLPPSRDELTKNQVSLSCAVKGFYPSDIAVEWESNGQPENNYKTTPPVLDSDGSFFLVSKLTVDKSRWQQGNVFSCSVMHEALHNHYTQKSLSLSPGK
heavy 2: not shown
light 2: QTVVTQEPSFSVSPGGTVTLTCRSSTGAVTTSNYANWVQQTPGQAPRGLIGGTNKRAPGVPARFSGSILGNKAALTITGAQADDEAEYFCALWYSNLWVFGGGTKLTVLASTKGPSVFPLAPSSKSTSGGTAALGCLVKDYFPEPVTVSWNSGALTSGVHTFPAVLQSSGLYSLSSVVTVPSSSLGTQTYICNVNHKPSNTKVDKKVEPKSC
notes: S15B1 arm and humanized SP34 anti-CD3 arm; also called anti-Siglec-15/CD3 bispecific antibody, Format-1: KIH & CrossmAb
Kd [10]: 115 nM | koff [10]: 0.011 s⁻¹ | kon [10]: 95800 M⁻¹ s⁻¹ | Kd [4]: 0.0865 nM | koff [4]: 0.00025 s⁻¹ | kon [4]: 2.89e+06 M⁻¹ s⁻¹ | EC50 (read off the curve) [11]: ~4 nM

B6: parental anti-CD3 antibody (humanized SP34 CD3 antibody) (antibody, V domains shown)
VH: EVQLVESGGGLVKPGGSLRLSCAASGFTFNTYAMNWVRQAPGKGLEWVARIRSKYNNYATYYADSVKDRFTISRDDSKNTLYLQMNSLKTEDTAVYYCVRHGNFGNSYVSWFAYWGQGTLVTVSS
VL: QTVVTQEPSFSVSPGGTVTLTCRSSTGAVTTSNYANWVQQTPGQAPRGLIGGTNKRAPGVPARFSGSILGNKAALTITGAQADDEAEYFCALWYSNLWVFGGGTKLTVL
notes: also called anti-human CD3 humanized antibody; anti-CD3 mAb
Kd [10]: 67.1 nM | koff [10]: 0.00713 s⁻¹ | kon [10]: 106000 M⁻¹ s⁻¹ | EC50 (read off the curve) [11]: ~0.2 nM

B7: 5G12 (antibody, V domains shown)
VH: QVQLQQPGAELVKPGASVKMSCKASGYTFTSYWITWVIQRPGQGLEWIGDIYCGSDTMHYNEKFKNKATLTVDTSSSTAYMQLSSLTSEDSAVYYCARWWDYGSSYDYFDYWGQGTTLTVSS
VL: DIKMTQSPSSMYASLGERVTITCKASQDINSYLSWFQQKPGKSPKTLIYRANRLVDGVPSRFSGSGSGQDYSLTISSLEYEDMGIYYCLQYDEFPYTFGGGTKLEIKR
EC50 (read off the curve) [12]: ~1 nM

B8: A2A5C7E8-3 (antibody, V domains shown)
VH: EVQLVQSGAEVKKPGESLRISCKGSGYSFTTYWISWVRQMPGKGLEWMGLIDPSDSYTNYSPSFKGHVTISTDKSISTAYLQWSSLKASDTAMYYCARGGYYGSEEDYWGQGTLVTVSS
VL: EIVLTQSPGTLSLSPGERATLSCRASQSVSSSRLAWFQQKSGQAPRLLIFDASSRATGIPDRFSGSGSGTDFTLTISRLEPEDFAVYYCQQYGSSPRTFGQGTKVEFKR
EC50 (read off the curve) [12]: ~0.5 nM

B9: ZLA-1243-A01 (antibody, V domains shown)
VH: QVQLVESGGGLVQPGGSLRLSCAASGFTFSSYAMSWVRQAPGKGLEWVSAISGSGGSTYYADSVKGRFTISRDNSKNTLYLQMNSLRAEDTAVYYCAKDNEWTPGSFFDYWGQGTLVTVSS
VL: QSALTQPASVSGSPGQSITISCTGTSSDVGGYNYVSWYQQHPGKAPKLMIYDVSNRPSGVSNRFSGSKSGNTASLTISGLQAEDEADYYCSSYTSSSTRVFGGGTKVTVL
notes: Fully human, from phage display; tested as full-length human IgG1 with silenced Fc (E233P, L234V, L235A, G236 deletion, D265G, A327Q, A330S, C-terminus lysine deletion)
EC50 (read off the curve) [12]: ~1 nM | binding result [13]: no binding | EC50 [14]: 0.0753 µg/mL | EC50 [15]: 0.181 µg/mL
